According to patent publication US20180030151A1 (MOGAM INSTITUTE FOR BIOMEDICAL RESEARCH, published 2018):
Where two headings read alike, the source gives them in different places.

Tests used:
[1] = biological target: T1, recombinant human TFPI (tissue factor pathway inhibitor) (human, UniProt P10646 29-304); experiment: cell-based or functional assay
[2] = biological target: T1, recombinant human TFPI (tissue factor …); experiment: cell-based or functional assay; remark: listed apart in the source
[3] = biological target: T1, recombinant human TFPI (tissue factor …); experiment: cell-based or functional assay; remark: listed apart in the source
[4] = biological target: T1, recombinant human TFPI (tissue factor …); experiment: cell-based or functional assay; remark: listed apart in the source
[5] = biological target: T1, recombinant human TFPI (tissue factor …); experiment: cell-based or functional assay; remark: listed apart in the source
[6] = biological target: T1, recombinant human TFPI (tissue factor …); experiment: cell-based or functional assay; remark: listed apart in the source
[7] = biological target: T1, recombinant human TFPI (tissue factor …); experiment: cell-based or functional assay; remark: listed apart in the source
[8] = biological target: T1, recombinant human TFPI (tissue factor …); experiment: SPR, Biacore T-200; TFPI immobilised on CM5 chip, IgG as analyte
Description: 10 mM of glycine-HCl (pH 1.5) was run at a flow rate of 30 μL/min for 30 seconds, thereby inducing the dissociation of the antibody associated with the TFPI. The affinity in terms of kinetic rate constants (Kₒₙ and Koff) and equilibrium dissociation constant

[9] = biological target: T1, recombinant human TFPI (tissue factor …); experiment: cell-based or functional assay; remark: listed apart in the source
[10] = biological target: T1, recombinant human TFPI (tissue factor …); experiment: cell-based or functional assay; remark: listed apart in the source
[11] = biological target: T1, recombinant human TFPI (tissue factor …); experiment: cell-based or functional assay; remark: listed apart in the source
[12] = biological target: T1, recombinant human TFPI (tissue factor …); experiment: cell-based or functional assay; remark: listed apart in the source
[13] = biological target: T1, recombinant human TFPI (tissue factor …); experiment: cell-based or functional assay; remark: listed apart in the source
[14] = biological target: T1, recombinant human TFPI (tissue factor …); experiment: cell-based or functional assay; remark: listed apart in the source
[15] = biological target: T1, recombinant human TFPI (tissue factor …); experiment: cell-based or functional assay; remark: listed apart in the source
[16] = biological target: T1, recombinant human TFPI (tissue factor …); experiment: cell-based or functional assay; remark: listed apart in the source

B1: clone T417 (antibody, V domains shown)
VH: EVHLVESGGDLVKPGGSLKLSCAASGFTFSSYAMSWVRQTPDKRLEWVATITTGGSYTYYPDSVKGRFTISRDNAKNTLYLQMSSLKSEDTAMYYCARQDGNFLMDYWGQGTTVTVSS
VL: not shown
notes: also called T417 chimeric antibody
- FXa assay % of FXa alone, 0.625 nM Ab, 10 nM TFPI [1]: 6%
- FXa assay % of FXa alone, 2.5 nM Ab, 10 nM TFPI [1]: 10%
- FXa assay OD, 0.625 nM Ab, 10 nM TFPI [1]: 0.061 OD
- FXa assay OD, 2.5 nM Ab, 10 nM TFPI [1]: 0.098 OD
- FXa assay OD, 10 nM Ab, 10 nM TFPI [1]: 0.753 OD
- FXa assay OD, 40 nM Ab, 10 nM TFPI [1]: 0.887 OD
- % of Normalized, TF/FVIIa/FX complex assay (FX 5 nM), Ab 1.56 nM [2]: 5.5%
- % of Normalized, TF/FVIIa/FX complex assay (FX 5 nM), Ab 3.13 nM [2]: 6%
- % of Normalized, TF/FVIIa/FX complex assay (FX 5 nM), Ab 6.25 nM [2]: 6.2%
- % of Normalized, TF/FVIIa/FX complex assay (FX 5 nM), Ab 12.5 nM [2]: 8.9%
- % of Normalized, TF/FVIIa/FX complex assay (FX 5 nM), Ab 25 nM [2]: 19%
- % of Normalized, TF/FVIIa/FX complex assay (FX 5 nM), Ab 50 nM [2]: 62.9%
- % of Normalized, TF/FVIIa/FX complex assay (FX 5 nM), Ab 100 nM [2]: 92%
- A405, TF/FVIIa/FX complex assay, Ab 1.56 nM [3]: 0.134
- A405, TF/FVIIa/FX complex assay, Ab 3.13 nM [3]: 0.147
- A405, TF/FVIIa/FX complex assay, Ab 6.25 nM [3]: 0.179
- A405, TF/FVIIa/FX complex assay, Ab 12.5 nM [3]: 0.242
- A405, TF/FVIIa/FX complex assay, Ab 25 nM [3]: 0.873
- A405, TF/FVIIa/FX complex assay, Ab 50 nM [3]: 0.945
- A405, TF/FVIIa/FX complex assay, Ab 100 nM [3]: 0.949
- FXa assay % of FXa alone, 2.5 nM Ab, 10 nM TFPI [4]: 7.7%
- FXa assay % of FXa alone, 5 nM Ab, 10 nM TFPI [4]: 29.9%
- FXa assay % of FXa alone, 10 nM Ab, 10 nM TFPI [4]: 56.8%
- FXa assay % of FXa alone, 20 nM Ab, 10 nM TFPI [4]: 75.6%
- FXa assay OD, 2.5 nM Ab, 10 nM TFPI [4]: 0.0625
- FXa assay OD, 5 nM Ab, 10 nM TFPI [4]: 0.242
- FXa assay OD, 10 nM Ab, 10 nM TFPI [4]: 0.461
- FXa assay OD, 20 nM Ab, 10 nM TFPI [4]: 0.614
- A405, TF/FVIIa/FX complex assay (FX 5 nM), Ab 1.56 nM [5]: 0.045
- A405, TF/FVIIa/FX complex assay (FX 5 nM), Ab 3.13 nM [5]: 0.049
- A405, TF/FVIIa/FX complex assay (FX 5 nM), Ab 6.25 nM [5]: 0.05
- A405, TF/FVIIa/FX complex assay (FX 5 nM), Ab 12.5 nM [5]: 0.072
- A405, TF/FVIIa/FX complex assay (FX 5 nM), Ab 25 nM [5]: 0.154
- A405, TF/FVIIa/FX complex assay (FX 5 nM), Ab 50 nM [5]: 0.509
- A405, TF/FVIIa/FX complex assay (FX 5 nM), Ab 100 nM [5]: 0.745
- FXa assay % of FXa alone, 2.5 nM Ab, 10 nM TFPI [6]: 9.2%
- FXa assay % of FXa alone, 5 nM Ab, 10 nM TFPI [6]: 43.8%
- FXa assay % of FXa alone, 10 nM Ab, 10 nM TFPI [6]: 75.2%
- FXa assay % of FXa alone, 20 nM Ab, 10 nM TFPI [6]: 88.6%
- FXa assay OD, 2.5 nM Ab, 10 nM TFPI [6]: 0.071
- FXa assay OD, 5 nM Ab, 10 nM TFPI [6]: 0.337
- FXa assay OD, 10 nM Ab, 10 nM TFPI [6]: 0.579
- FXa assay OD, 20 nM Ab, 10 nM TFPI [6]: 0.682
- TFPI inhibitory activity, FXa activity assay, Ab 10 nM [7]: 78.4%
- effect of inhibiting TFPI, FXa activity assay, Ab 10 nM [7]: 72%
- Kd [8]: 6.7 pM
- A405, TF/FVIIa/FX complex assay, Ab 1.56 nM [9]: 0.045
- A405, TF/FVIIa/FX complex assay, Ab 3.13 nM [9]: 0.047
- A405, TF/FVIIa/FX complex assay, Ab 6.25 nM [9]: 0.05
- A405, TF/FVIIa/FX complex assay, Ab 12.5 nM [9]: 0.074
- A405, TF/FVIIa/FX complex assay, Ab 25 nM [9]: 0.273
- A405, TF/FVIIa/FX complex assay, Ab 50 nM [9]: 0.6
- A405, TF/FVIIa/FX complex assay, Ab 100 nM [9]: 0.81
- A405, TF/FVIIa/FX complex assay, Ab 1.56 nM [10]: 0.145
- A405, TF/FVIIa/FX complex assay, Ab 3.13 nM [10]: 0.16
- A405, TF/FVIIa/FX complex assay, Ab 6.25 nM [10]: 0.186
- A405, TF/FVIIa/FX complex assay, Ab 12.5 nM [10]: 0.251
- A405, TF/FVIIa/FX complex assay, Ab 25 nM [10]: 0.88
- A405, TF/FVIIa/FX complex assay, Ab 50 nM [10]: 0.908
- A405, TF/FVIIa/FX complex assay, Ab 100 nM [10]: 0.945
- FXa assay % of FXa alone, 2.5 nM Ab, 10 nM TFPI [11]: 7.2%
- FXa assay % of FXa alone, 5 nM Ab, 10 nM TFPI [11]: 10.2%
- FXa assay % of FXa alone, 10 nM Ab, 10 nM TFPI [11]: 43.9%
- FXa assay % of FXa alone, 20 nM Ab, 10 nM TFPI [11]: 66.9%
- FXa assay OD, 2.5 nM Ab, 10 nM TFPI [11]: 0.0855
- FXa assay OD, 5 nM Ab, 10 nM TFPI [11]: 0.122
- FXa assay OD, 10 nM Ab, 10 nM TFPI [11]: 0.522
- FXa assay OD, 20 nM Ab, 10 nM TFPI [11]: 0.797
- % of Normalized, TF/FVIIa/FX complex assay, Ab 1.56 nM [12]: 5.2%
- % of Normalized, TF/FVIIa/FX complex assay, Ab 3.13 nM [12]: 5.5%
- % of Normalized, TF/FVIIa/FX complex assay, Ab 6.25 nM [12]: 5.8%
- % of Normalized, TF/FVIIa/FX complex assay, Ab 12.5 nM [12]: 8.7%
- % of Normalized, TF/FVIIa/FX complex assay, Ab 25 nM [12]: 32.1%
- % of Normalized, TF/FVIIa/FX complex assay, Ab 50 nM [12]: 70.7%
- % of Normalized, TF/FVIIa/FX complex assay, Ab 100 nM [12]: 95.5%
- FXa assay % of FXa alone, 2.5 nM Ab, 10 nM TFPI [13]: 5.4%
- FXa assay % of FXa alone, 5 nM Ab, 10 nM TFPI [13]: 8%
- FXa assay % of FXa alone, 10 nM Ab, 10 nM TFPI [13]: 30.7%
- FXa assay % of FXa alone, 20 nM Ab, 10 nM TFPI [13]: 58.5%
- FXa assay OD, 2.5 nM Ab, 10 nM TFPI [13]: 0.041
- FXa assay OD, 5 nM Ab, 10 nM TFPI [13]: 0.061
- FXa assay OD, 10 nM Ab, 10 nM TFPI [13]: 0.234
- FXa assay OD, 20 nM Ab, 10 nM TFPI [13]: 0.446
- FXa assay % of FXa alone, 2.5 nM Ab, 10 nM TFPI [14]: 17.6%
- FXa assay % of FXa alone, 5 nM Ab, 10 nM TFPI [14]: 75.9%
- FXa assay % of FXa alone, 10 nM Ab, 10 nM TFPI [14]: 85.2%
- FXa assay % of FXa alone, 20 nM Ab, 10 nM TFPI [14]: 93.3%
- FXa assay OD, 2.5 nM Ab, 10 nM TFPI [14]: 0.127
- FXa assay OD, 5 nM Ab, 10 nM TFPI [14]: 0.546
- FXa assay OD, 10 nM Ab, 10 nM TFPI [14]: 0.613
- FXa assay OD, 20 nM Ab, 10 nM TFPI [14]: 0.67
- FXa assay % of FXa alone, 2.5 nM Ab, 10 nM TFPI [15]: 9.8%
- FXa assay % of FXa alone, 5 nM Ab, 10 nM TFPI [15]: 52.1%
- FXa assay % of FXa alone, 10 nM Ab, 10 nM TFPI [15]: 69.4%
- FXa assay % of FXa alone, 20 nM Ab, 10 nM TFPI [15]: 81.8%
- FXa assay OD, 2.5 nM Ab, 10 nM TFPI [15]: 0.079
- FXa assay OD, 5 nM Ab, 10 nM TFPI [15]: 0.42
- FXa assay OD, 10 nM Ab, 10 nM TFPI [15]: 0.56
- FXa assay OD, 20 nM Ab, 10 nM TFPI [15]: 0.66
- % of Normalized, TF/FVIIa/FX complex assay, Ab 1.56 nM [16]: 14.5%
- % of Normalized, TF/FVIIa/FX complex assay, Ab 3.13 nM [16]: 16%
- % of Normalized, TF/FVIIa/FX complex assay, Ab 6.25 nM [16]: 19.4%
- % of Normalized, TF/FVIIa/FX complex assay, Ab 12.5 nM [16]: 26.3%
- % of Normalized, TF/FVIIa/FX complex assay, Ab 25 nM [16]: 95%
- % of Normalized, TF/FVIIa/FX complex assay, Ab 50 nM [16]: 103%
- % of Normalized, TF/FVIIa/FX complex assay, Ab 100 nM [16]: 103%
